Test [1] concerns the target T1, human CD36 (on HEK 293 or SCC25 cells) (human, UniProt P16671 2-472).
T1 construct: Overexpressed transiently or stably on HEK 293 cells, or stably on SCC25 cells; also called huCD36
In words: FACS, HEK 293 cells transiently overexpressing human CD36.
Experimental: After incubation with the cells, an anti-human fluorescently labelled antibody was added to the cell media, allowed to incubate further, and the unbound antibody was washed off of the cells. Subsequently, the cells were subjected to FACS analysis to determine antibody binding to the cells. The results were fitted to a sigmoidal titration curve. Using a nonlinear regression model, the EC₅₀ values for each antibody were calculated from the GeoMFI and MFI values using the log(agonist) versus response (four parameters) fitting on the data transformed according to X=Log[X] in GraphPad PRISM.
After transiently transfecting the HEK 293 cells with a CD36 expression construct, cells were treated with three-fold serial dilution of each candidate antibody (10 dilutions starting at 500 nM). […] Antibody binding to cells was measured by FACS as above.

The target of test [2] is T2, purified biotin-tagged human CD36 (human, UniProt P16671 30-439, limits assumed, biotin tag, site not stated). In words: AlphaScreen competition; competitor 1G04 on acceptor beads.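 Note: streptavidin donor beads excited at 680 nm release singlet oxygen, and the light signal needs a nearby acceptor bead, with 30 min donor-bead incubation at 25 °C in the dark.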 For orientation: In Alpha technology, singlet oxygen from a donor bead excites a nearby acceptor bead.
Test [3] addresses T1, human CD36 (on HEK 293 or SCC25 cells). In words: cell-based or functional assay.
Test [4] has the same target. In words: cell-based or functional assay. The source holds these as a separate data set.
In test [5] the target is T3, nonhuman primate CD36 (on HEK 293 cells) (cynomolgus monkey / rhesus macaque, UniProt P16671 2-472 (human entry)).
T3 construct: also called non-human primate CD36 (cynomolgus)
In words: FACS, HEK 293 cells transiently overexpressing CD36.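 Note: antibody binding to transfected cells detected by flow cytometry with a fluorescent anti-human secondary antibody, EC50 from a four-parameter sigmoidal fit of mean fluorescence intensity.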 On the technique in general: Flow cytometry measures light scatter and fluorescence of single cells or particles in a stream.

The target in test [6] is T1, human CD36 (on HEK 293 or SCC25 cells). The description is as above.
For test [7], the target named is T4, mouse CD36 (on HEK 293 cells) (mouse, UniProt Q08857 1-472).
T4 construct: also called Murine CD36
Described as above.

The target in test [8] is T2, purified biotin-tagged human CD36. The test is described as follows: AlphaScreen competition; competitor 11G04 on acceptor beads.
Experimental: This was done using the AlphaScreen® bead-based microplate assay. […] AlphaLISA® Streptavidin Donor Beads were then added and the mix incubated for 30 min at 25° C. in the dark. The donor bead contains a photosensitizer, which upon excitation by light at 680 nm, converts oxygen (O₂) into an excited form, singlet oxygen. Singlet oxygen molecules have a reduced lifetime (4 microseconds half-life) and can diffuse approximately 200 nm in solution before falling back to ground state. In the absence of acceptor beads, the singlet oxygen molecules fall back to ground state without producing any light signal.
The target of another test is T5, human CD36 (His-tagged) (human, UniProt P16671 30-439).
T5 construct: not shown: His tag
The test is described as follows: SPR (Biacore T200), His-captured CD36, bivalent analyte model. On the technique in general: In SPR one partner is held on a chip, and binding of the other changes the refractive index at the surface.

Test [9] concerns the target T1, human CD36 (on HEK 293 or SCC25 cells). The test is described as follows: cell-based or functional assay. The source holds these as a separate data set.
The target is the same in test [10]. The test is described as follows: FACS, SCC25 cells stably overexpressing human CD36.

Numbering of substitutions follows the chain as printed. Numbers in names are those of the source.

T5 sequence (P16671 30-439 limits assumed): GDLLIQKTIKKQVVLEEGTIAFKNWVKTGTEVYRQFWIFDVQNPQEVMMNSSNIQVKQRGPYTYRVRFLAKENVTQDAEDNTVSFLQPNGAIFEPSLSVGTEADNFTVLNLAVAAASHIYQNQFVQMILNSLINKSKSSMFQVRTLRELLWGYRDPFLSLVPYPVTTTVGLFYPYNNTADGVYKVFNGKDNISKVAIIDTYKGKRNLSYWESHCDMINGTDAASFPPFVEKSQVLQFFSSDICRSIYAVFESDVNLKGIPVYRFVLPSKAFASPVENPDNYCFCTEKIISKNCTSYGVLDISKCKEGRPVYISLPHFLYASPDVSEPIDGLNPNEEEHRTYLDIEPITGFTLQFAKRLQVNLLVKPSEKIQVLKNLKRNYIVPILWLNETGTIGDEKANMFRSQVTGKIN
T1 sequence (P16671 2-472 limits assumed): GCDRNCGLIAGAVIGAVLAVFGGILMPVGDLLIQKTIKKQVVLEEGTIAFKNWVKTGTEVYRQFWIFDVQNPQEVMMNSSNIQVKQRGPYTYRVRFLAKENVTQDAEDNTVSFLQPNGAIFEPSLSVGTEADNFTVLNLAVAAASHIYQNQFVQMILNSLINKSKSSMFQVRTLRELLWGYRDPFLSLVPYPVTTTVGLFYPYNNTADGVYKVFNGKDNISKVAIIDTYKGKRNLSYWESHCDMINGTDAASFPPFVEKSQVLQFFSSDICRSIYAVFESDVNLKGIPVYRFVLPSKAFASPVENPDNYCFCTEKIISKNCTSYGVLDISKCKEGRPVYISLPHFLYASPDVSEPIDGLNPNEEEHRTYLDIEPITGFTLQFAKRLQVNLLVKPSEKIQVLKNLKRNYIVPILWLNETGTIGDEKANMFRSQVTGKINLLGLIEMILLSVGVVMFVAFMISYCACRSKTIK
T3 sequence (P16671 other isoform, or with tags, fused parts or gaps limits assumed): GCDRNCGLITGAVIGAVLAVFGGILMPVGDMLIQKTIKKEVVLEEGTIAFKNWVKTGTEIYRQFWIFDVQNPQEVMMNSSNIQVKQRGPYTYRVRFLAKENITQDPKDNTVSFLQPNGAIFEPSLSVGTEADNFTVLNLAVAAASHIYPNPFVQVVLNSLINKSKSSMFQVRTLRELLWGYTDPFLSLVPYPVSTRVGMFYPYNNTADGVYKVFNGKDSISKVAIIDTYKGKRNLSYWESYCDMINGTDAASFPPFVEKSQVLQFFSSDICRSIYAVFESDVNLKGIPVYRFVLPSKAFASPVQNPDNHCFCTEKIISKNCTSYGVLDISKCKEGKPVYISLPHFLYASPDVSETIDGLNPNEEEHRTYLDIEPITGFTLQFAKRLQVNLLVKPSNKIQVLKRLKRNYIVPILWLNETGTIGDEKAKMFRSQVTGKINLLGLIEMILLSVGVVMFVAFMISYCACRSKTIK
T4 sequence (Q08857 whole entry): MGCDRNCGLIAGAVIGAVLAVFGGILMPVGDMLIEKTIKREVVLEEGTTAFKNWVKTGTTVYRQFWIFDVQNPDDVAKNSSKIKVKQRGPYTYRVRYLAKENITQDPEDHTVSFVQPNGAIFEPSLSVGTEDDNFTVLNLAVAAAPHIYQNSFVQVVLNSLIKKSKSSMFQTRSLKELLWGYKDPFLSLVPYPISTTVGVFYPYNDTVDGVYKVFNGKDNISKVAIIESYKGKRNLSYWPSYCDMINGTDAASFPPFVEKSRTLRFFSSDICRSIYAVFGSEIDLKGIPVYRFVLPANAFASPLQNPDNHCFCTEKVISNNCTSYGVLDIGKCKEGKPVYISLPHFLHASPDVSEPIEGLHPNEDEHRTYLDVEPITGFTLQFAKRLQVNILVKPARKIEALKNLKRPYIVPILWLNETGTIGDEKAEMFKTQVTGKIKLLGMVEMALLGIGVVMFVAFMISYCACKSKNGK
T2 sequence (P16671 30-439 limits assumed): as the sequence (P16671 30-439 limits assumed) above
Experimental for human CD36 (His-tagged): The binding affinity of the reported antibodies for human CD36 was also measured by surface plasmon resonance (SPR) using a Biacore T200. […] For each single-cycle experiment, human CD36 (His-tagged) was captured at low density (approximately 40 RU) and a titration of five antibody concentrations (diluted in running buffer) were injected over the captured antigen and then the dissociation of the complex was measured. A double referencing method was employed in which data from the reference surfaces where no antigen was captured (fc 1) were subtracted from the antigen bound capture surface (fc 2). Blank injections of buffer were run for every antibody titration cycle and then subtracted from analyte injection cycles, to correct for small changes in the capture surface density. Surface regeneration between cycles was performed by injecting Glycine pH 1.5 for 60 s. All analysis was performed at 20° C. in HBS-P running buffer (flow 30 μL/min), and the sample rack was kept at 6° C. during experimental runs. Data was fitted to a bivalent analyte model from which the kinetic and thermodynamic binding constants were derived.

B1: 76G06 (antibody, human IgG1, kappa)
heavy: QVQLVQSGAEVKKPGSSVKVSCKASGYRFSDYEMQWVRQAPGQGLEWMGGIDPETGGIAYAQKFQGRVTLTADKSTSTAYMELSSLRSEDTAVYYCTRKLDFDYWGQGTLVTVSSASTKGPSVFPLAPSSKSTSGGTAALGCLVKDYFPEPVTVSWNSGALTSGVHTFPAVLQSSGLYSLSSVVTVPSSSLGTQTYICNVNHKPSNTKVDKKVEPKSCDKTHTCPPCPAPESTRGPSVFLFPPKPKDTLYITREPEVTCVVVDVSHEDPEVKFNWYVDGVEVHNAKTKPREEQYNSTYRVVSVLTVLHQDWLNGKEYKCKVSNKALPAPIEKTISKAKGQPREPQVYTLPPSRDELTKNQVSLTCLVKGFYPSDIAVEWESNGQPENNYKTTPPVLDSDGSFFLYSKLTVDKSRWQQGNVFSCSVMHEALHNHYTQKSLSLSPGK
light: ETTVTQSPAFMSATPGDKVTISCITSTDIDDDMNWYQQKPGEPPKLLISEGNTLRPGVPSRFSSSGYGTDFTFTINNIESEDAAYYYCLQSDNLPLTFGQGTKLEIKRTVAAPSVFIFPPSDEQLKSGTASVVCLLNNFYPREAKVQWKVDNALQSGNSQESVTEQDSKDSTYSLSSTLTLSKADYEKHKVYACEVTHQGLSSPVTKSFNRGEC
notes: Humanized 11G04, human IgG1 STR
Turning to B1, it took 0.88 nM to reach a half-maximal effect in [1] (EC50).

B2: 79G06 (antibody, human IgG1, kappa)
heavy: B1 heavy with Q1E
light: B1 light with N52S
notes: as for B1
The molecule B2 displayed an EC50 in test [1] of 0.65 nM.

B3: 77G06 (antibody, human IgG1, kappa)
heavy: B1 heavy with Q1E
light: B1 light with P15T, N52S
notes: as for B1
Regarding B3, the midpoint of the response in test [1], the EC50, lay at 0.81 nM.

B4: 80G06 (antibody, human IgG1, kappa)
heavy: B1 heavy
light: B1 light with N52S
notes: as for B1
For B4, the EC50 in [1] came out at 0.65 nM.

B5: 78G06 (antibody, human IgG1, kappa)
heavy: B1 heavy
light: B1 light with P15T, N52S
notes: as for B1
In test [1], B5 showed an EC50 of 1.15 nM.

B6: 33G04 (antibody, human IgG1, V domains shown)
VH: AVTLDESGGGLQTPGGALSLVCKASGFDFSSYAMGWVRQAPGKGLEWVAGKAKDGGGTAYGSAVKGRATISRDNGQSTVRLQLSNLRAEDTGVYYCAKSAYGDWFYGSSGPYADSIDAWGHGTEVIVSS
VL: ALTQPSSVSASPGETVKITCSGSSDSWYGWYQQKSPGSALVTVIYDSTNRPSSIPSRFSGSTSGSTGTLTITGVRADDEAVYFCGSFDSSTDSTAFGAGTTLTVL
notes: Chimeric: chicken variable regions on human IgG1 LALA (L234A/L235A); also called 033G04
With B6, the EC50 in test [2] worked out at 1.58 nM; in [5], 0.52 nM; in test [6], 0.31 nM; in test [7], 4.33 nM; in test [8], 3.68 nM. For the same molecule, the “IC50 of fatty acid uptake inhibition (BODIPY FL C16, HEK hCD36 cells)” value in [3] was 0.1 nM. In addition, the “IC50 of oxLDL uptake inhibition (DiI-oxLDL, SCC25 cells)” value in [4] amounted to 0.28 nM.

B7: 11G04 (antibody, human IgG1, V domains shown)
VH: EVQLQQSGAELVRPGASVTLSCKASGYRFSDYEMQWVKQTPVHGLEWIGGIDPETGGIAYNQKFKVKATLTADKSSSTAFMELRSLTSEDSAVYYCTRKLDFDYWGQGTTLTVSS
VL: ETTVTQSPASLSVATGEKVTIRCITSTDIDDDMNWYQQKPGEPPKLLISEGNTLRPGVPSRFSSSGYGTDFVFTIENMLSEDVADYYCLQSDNLPLTFGAGTKLELK
notes: Chimeric: mouse variable regions on human IgG1 LALA (L234A/L235A); also called 011G04
In the case of B7, the Kd with human CD36 (His-tagged) worked out at 19 nM. The molecule also came in with a koff with human CD36 (His-tagged) of 0.022 s⁻¹. Besides, the kon with human CD36 (His-tagged) amounted to 1.2e+06 M⁻¹ s⁻¹. Further, in test [3], the “IC50 of fatty acid uptake inhibition (BODIPY FL C16, HEK hCD36 cells)” value turned out to be 0.07 nM. For the same molecule, the “IC50 of oxLDL uptake inhibition (DiI-oxLDL, SCC25 cells)” value in [4] is 1.17 nM. In addition, the EC50 in test [5] was determined as 8.93 nM; in test [6], 0.45 nM; in test [7], 11.2 nM; in test [1], 0.49 nM; in test [10], 0.46 nM. Further, in test [9], the “Percent Fatty Acid Uptake Inhibition” value stood at 41.6%.

The term EC50 denotes the concentration at which the effect is half-maximal. Usually koff stands for the rate constant with which the complex falls apart. As a reminder, the kon is the second-order rate constant of association.

(Values after patent US20250206836A1 (ONA THERAPEUTICS S L, published 2025).)
